# From patent publication CN108314731A (ZHUHAI TAINUO MAIBO BIOTECHNOLOGY CO LTD; GUANGZHOU …, dated 2018)
# Biological target: 破伤风类毒素 (tetanus toxoid) (破伤风杆菌 (Clostridium tetani), UniProt P04958 2-1315)
# Sequence (P04958 2-457 limits assumed, chain 1 of 2): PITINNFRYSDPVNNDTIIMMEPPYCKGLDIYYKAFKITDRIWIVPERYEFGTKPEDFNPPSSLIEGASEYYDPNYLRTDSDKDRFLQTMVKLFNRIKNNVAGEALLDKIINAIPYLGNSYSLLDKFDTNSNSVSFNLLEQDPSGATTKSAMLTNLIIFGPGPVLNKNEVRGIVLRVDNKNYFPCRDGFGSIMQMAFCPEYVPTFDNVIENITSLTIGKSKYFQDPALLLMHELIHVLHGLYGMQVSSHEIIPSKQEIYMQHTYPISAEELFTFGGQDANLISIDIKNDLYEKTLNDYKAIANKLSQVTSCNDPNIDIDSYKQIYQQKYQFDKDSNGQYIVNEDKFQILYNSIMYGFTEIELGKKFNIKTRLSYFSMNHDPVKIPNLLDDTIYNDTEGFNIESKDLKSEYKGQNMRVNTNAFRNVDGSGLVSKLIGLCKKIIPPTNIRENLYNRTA
# Sequence (P04958 458-1315 limits assumed, chain 2 of 2): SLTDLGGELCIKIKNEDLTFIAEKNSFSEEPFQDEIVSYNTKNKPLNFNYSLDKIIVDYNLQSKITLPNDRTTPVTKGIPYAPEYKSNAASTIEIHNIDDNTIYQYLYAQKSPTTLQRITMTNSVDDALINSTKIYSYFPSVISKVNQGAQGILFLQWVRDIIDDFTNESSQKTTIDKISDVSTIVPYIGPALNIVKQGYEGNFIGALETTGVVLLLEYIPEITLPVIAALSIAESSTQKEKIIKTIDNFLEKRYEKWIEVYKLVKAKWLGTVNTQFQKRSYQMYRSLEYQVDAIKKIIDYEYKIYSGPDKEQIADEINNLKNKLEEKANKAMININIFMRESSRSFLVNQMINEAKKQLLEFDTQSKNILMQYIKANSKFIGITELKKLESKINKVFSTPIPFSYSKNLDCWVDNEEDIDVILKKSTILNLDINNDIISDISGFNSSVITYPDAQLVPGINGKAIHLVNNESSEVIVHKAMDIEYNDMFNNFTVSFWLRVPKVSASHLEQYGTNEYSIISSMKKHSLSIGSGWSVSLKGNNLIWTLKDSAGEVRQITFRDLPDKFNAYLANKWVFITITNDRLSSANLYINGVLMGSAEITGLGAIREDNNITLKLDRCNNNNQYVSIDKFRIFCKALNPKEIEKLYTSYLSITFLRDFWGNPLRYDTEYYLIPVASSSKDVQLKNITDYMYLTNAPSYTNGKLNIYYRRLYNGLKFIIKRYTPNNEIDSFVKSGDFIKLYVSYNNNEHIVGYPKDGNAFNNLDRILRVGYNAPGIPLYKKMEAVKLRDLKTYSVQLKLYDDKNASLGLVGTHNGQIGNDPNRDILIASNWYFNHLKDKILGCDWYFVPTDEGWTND
binder,measurement,value
"TRN0010抗体 (全人源抗破伤风毒素中和抗体) (antibody, V domains shown) VH: QVQLQESGPGLVKPSETLSLRCTVSGGSISSYYWSWFRQPPGKGLEWIGYVHYSGSTNYNPSLKSRFTLSVDTSKSQFSLRLRSVTAADTAIYYCARDKYQTDVSDIWGQGTVVTVSS VL: DIQMTQSPGTLSLSPGERATLSCRASQSITSSFLAWYQQKPGQAPRLLIYGASSRATGIPDRFSGSGSGTDFILTISRLEPEDFAVYYCQQYDTSRTFGQGTTVEIK",Kd,3.68 nM
same,koff,0.000153 s⁻¹
same,kon,41500 M⁻¹ s⁻¹
